Test results reported in patent WO2010028796A1 (dated 2010).

Assays:
[1] = molecular target: human CD4 (human, UniProt P01730 26-458); assay: cell-based or functional assay
[2] = molecular target: human CCR5 (human, UniProt P51681 1-352); assay: cell-based or functional assay
Chain of human CCR5 (P51681 whole entry): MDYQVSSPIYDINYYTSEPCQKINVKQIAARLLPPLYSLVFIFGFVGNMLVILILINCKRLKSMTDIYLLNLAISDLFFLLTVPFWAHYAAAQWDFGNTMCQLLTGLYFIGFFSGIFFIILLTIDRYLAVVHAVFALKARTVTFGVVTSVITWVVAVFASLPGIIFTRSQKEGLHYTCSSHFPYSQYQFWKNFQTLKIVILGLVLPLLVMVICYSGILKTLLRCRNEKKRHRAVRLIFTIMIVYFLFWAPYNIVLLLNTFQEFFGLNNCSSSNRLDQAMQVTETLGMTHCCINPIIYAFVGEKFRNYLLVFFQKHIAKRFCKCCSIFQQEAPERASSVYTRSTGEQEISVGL

Row | Binder | IC50, PBMC antiviral assay (HIV-1 NLBal, p24 ELISA) [1] [nM] | IC50, PBMC antiviral assay (HIV-1 NLBal, p24 ELISA) [2] [nM]
1 | HNN-1000-1000 (antibody, V domains shown) VH: QVQLQQSGPEVVKPGASVKMSCKASGYTFTSYVIHWVRQKPGQGLDWIGYINPYNDGTDYDEKFKGKATLTSDTSTSTAYMELSSLRSEDTAVYYCAREKDNYATGAWFAYWGQGTLVTVSS VL: DIVMTQSPDSLAVSLGERVTMNCKSSQSLLYSTNQKNYLAWYQQKPGQSPKLLIYWASTRESGVPDRFSGSGSGTDFTLTISSVQAEDVAVYYCQQYYSYRTFGGGTKLEIK | 0.348 | 
2 | BNN-1000-1000 (antibody, human IgG1, kappa, L234A L235A, V domains shown) VH: QVQLQESGPGLVKPSQSLSITCTVSGFPLGAFGVHWVRQSPGKGLEWLGVIWKGGNTDYNAAFKSRLRITKDNSKSQVFFRMNSLQTDDTATYYCAKVNLADAMDYWGQGTTVTVSS VL: DIQMTQSPASLSASVGETVTITCRASGNAHGYLAWYQQKPGKAPKLLIYNTKTLAEGVPSRFSGSGSGTQFSLKINSAQPEDFGNYYCQHHYDLPRTFGGGTKVEIKR |  | 1.08
